The supplement of paper PMC9170038

Tested on: MS2 coat protein
Test: apparent KD of MS2 coat protein; designed switch direction (-1 OFF switch, 1 ON switch): -1; higher = weaker reporter binding
Summary of the method: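 Designed RNA switches with common flanks were transcribed on Illumina chips by stalled E. coli RNA polymerase and titrated with SNAP-549-labelled MS2 coat protein, from 0.7 or 1.5 nM doubling to 3 µM, in Tris-HCl pH 7.5 buffer with KCl, MgCl2, BSA, DTT, tRNA and Tween-20. Steps lasted 0.8–1.5 h (lowest) to 10–20 min (highest). Titrations ran without input, with 200 uM small-molecule ligand, or with an oligonucleotide input. Normalised cluster fluorescence was curve-fitted, and apparent KD is the per-design median over clusters.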

[1] = input ligand: microRNA oligo, concentration not stated
[2] = Eterna round: R95, input ligand: microRNA oligo, concentration not stated
[3] = Eterna round: R95, input ligand: FMN 200 uM
[4] = Eterna round: R95, input ligand: none

Row | Sequence | apparent KD of MS2 coat protein (input ligand: FMN 200 uM) | apparent KD of MS2 coat protein (input ligand: none) | apparent KD of MS2 coat protein [1] | apparent KD of MS2 coat protein [2] | apparent KD of MS2 coat protein [3] | apparent KD of MS2 coat protein [4]
1 | UUCAUGUGAGGAUAUUAGUAGUAAAUGAAUAAAAUUAUUACUGAGAAGGUACAUGAGGAUCACCCAUGUUCCUU [Mat - Exclusion 4 - Eli Mod - D21] (Eterna round: R97, puzzle: Exclusion 4) | 20.1 nM | 14.6 nM | – | – | – | –
2 | UUCCUCAUAACAUGAGGAUCACCCAUGUAUUAUUUGAUAACUGAGGAUAUACUAAUAAUGUUUAUGUAGAAGGCAGAUACAGAU [JR_ExcNG3_Sub015] (Eterna round: R96, puzzle: Exclusion NG 3) | 623 nM | 59.1 nM | 69.1 nM | – | – | –
3 | UUCCUGUCAGGAUAUGACUAGAGGCACGAAAGUGUGUUUAGUUAGAAGGGACAUGAGGAUCACCCAUGUAGUCC [Bring Us a Shrubbery-20] (puzzle: Exclusion 4) | – | – | – | 21.9 nM | – | –
4 | UUCGCAAAAUUAGGUCCUAACAUGAGGAUCACCCAUGUUCUAGGUAAGUGCCUCCGCCCGCUAACUGUUCGUCUUGU [Eternabot (L1) Solution 36] (Eterna round: R97, puzzle: Sensor, turn-off variant 1) | 23.1 nM | 24.9 nM | – | – | – | –
5 | UUCUGCACGCUGCGGUCCUACAUGAGGAUCACCCAUGUGGUCUGGUGGCGUGGGUCGCCGGACUUGGCUCGUCUUGA [salish99_S_TOV1_R5_044] (Eterna round: R97, puzzle: Sensor, turn-off variant 1) | 18.2 nM | 19.1 nM | – | – | – | –
6 | UUCUGCACGCUGCGGUCCUACAUGAGGAUCACCCAUGUGGUCUGGUGGCGUGGGUCGCCGGACUUGGCUCGUCUUGG [salish99_S_TOV1_R5_049] (Eterna round: R97, puzzle: Sensor, turn-off variant 1) | 15.4 nM | 14.9 nM | – | – | – | –
7 | UUGAAGAUAGGAUAUACGAGGAGAGGAGAGAGAAGGUGAGGACAUGAGGAUCACCCAUGUAGAAGGAUCAGGAG [JR_Exclu2_Sub066] (puzzle: Exclusion 2) | – | – | – | 86.9 nM | 66.1 nM | 84.9 nM
8 | UUGAUGUCAUCAGGAUAUAGUAUUUAAGACAUAUCUUCUUUCAAACAUGAGGAUCACCCAUGUCGCUAGAAGGGAUGAAUGAUU [JR_ExcNG2_Sub085] (Eterna round: R96, puzzle: Exclusion NG 2) | – | – | 12.1 nM | – | – | –
9 | UUGAUUCAUGUAGGAUAUGCGUGGCGAAGCUAUGCAGAAGGACAUGAGGAUCACCCAUGUGCUUGCGUCCGCGUACGGAUGCUA [JL ENG1 1.23] (Eterna round: R96, puzzle: Exclusion NG 1) | 154 nM | 165 nM | 107 nM | – | – | –
10 | UUGCAGUCGUCAGGAUAUAGUAUUACGGCCAUUUAUAUUUUCAUACAUGAGGAUCACCCAUGUCGCUAGAAGGGAUUAUCGAUU [salish99_ExNG2_r04_101] (Eterna round: R96, puzzle: Exclusion NG 2) | 49.7 nM | 53.4 nM | 40.4 nM | – | – | –
11 | UUGCAGUCGUCAGGAUAUAGUAUUACGGCCAUUUAUUUUUUCAUACAUGAGGAUCACCCAUGUCGCUAGAAGGGAUUAUCGAUU [salish99_ExNG2_r04_102] (Eterna round: R96, puzzle: Exclusion NG 2) | – | – | 38.9 nM | – | – | –
12 | UUGCGCUGAGGAUAUAUAACCGAUGACAUGAGGAUCACCCAUGUGGAUACAAGGGACUGAAUAGAAGGUAGCCAGA [Eternabot (L1) Solution 69] (Eterna round: R97, puzzle: Exclusion 5) | 42.4 nM | 79.9 nM | – | – | – | –
13 | UUGGUUAUCCAUGGAAGUAACAUGAGGAUCACCCAUGUAUGUCUAGUUUUUUGUUCGUCAUAGGCCUUUUGUUUGGA [JR_SV3TOV1_Sub022] (puzzle: Sensor v3, turn-off variant 1) | – | – | – | 27.9 nM | 26.8 nM | 30.9 nM
14 | UUGGUUAUCUAUGGGAGUAACAUGAGGAUCACCCAUGUAUGUCUUGUUUUUUGUUCGUCAUAGGCCUUUUGUUUGGA [JR_SV3TOV1_Sub024] (puzzle: Sensor v3, turn-off variant 1) | – | – | – | 35 nM | 28.6 nM | 29.8 nM
15 | UUGGUUGUGGUAGGAUAUCCGUUGGAAACCGUCGGAGAAGGACCACAGUCACUGGGUCUUUGUCUGGUGGACUGGAAUCACCAU [pwkr exNG1 F6.21] (Eterna round: R96, puzzle: Exclusion NG 1) | 295 nM | 224 nM | 157 nM | – | – | –
16 | UUGGUUGUGGUAGGAUAUCCGUUGGAAACUGUUGGAGAAGGACCACAGUCACUGGGUCCUUCUUUGGUGGAGUGGAAGAACCAU [pwkr exNG1 F6.17] (Eterna round: R96, puzzle: Exclusion NG 1) | 131 nM | 167 nM | 192 nM | – | – | –
17 | UUGUAGUCAGGAUAUACAUGAGGAUCACCCAUGUAAAAUUUUAAUUUAAUUUGAAGGUGUAGAAGGGACCAGUU [Ex3 #24] (Eterna round: R97, puzzle: Exclusion 3) | 36.5 nM | 43.4 nM | – | – | – | –
18 | UUGUGCAAAGGAUAUACGUCCGACCUCGUGGAACUGAGAAUACAUGAGGAUCACCCAUGUAGAAGGUUGCCGAG [Racereus] (puzzle: Exclusion 2) | – | – | – | 10.5 nM | – | –
19 | UUGUUAUAUGAAGGAUAUACUUAACAUGAGGAUCACCCAUGUGGUGUUGUGAGUGAGUGAGUUUAGUAGAAGGUCAAUUAUUUU [JMF's solution 29] (Eterna round: R96, puzzle: Exclusion NG 2) | 1340 nM | 492 nM | 380 nM | – | – | –
20 | UUGUUCAGAGGAUAUACAUGAGGAUCACCCAUGUGUUUCAGCUAGGAGACUAGCGAAAGUAGAAGGCUGUACUC [salish99_ex3_r4_016] (Eterna round: R97, puzzle: Exclusion 3) | 30.5 nM | 25.6 nM | – | – | – | –
21 | UUGUUCCAUGUAGGAUAUGCAUAUUCUUAUUAUGCAGAAGGACAUGAGGAUCACCCAUGUAUGUUAUUAUUAUAUGUUACAUGU [Design 1] (Eterna round: R96, puzzle: Exclusion NG 1) | – | – | 56.7 nM | – | – | –
22 | UUGUUGUAUGUAGGAUAUGCGUAUUAUUAUUAUGCAGAAGGACAUGAGGAUCACCCAUGUAUAUUAUUAUUAUAUGUUAUAUAU [Title] (Eterna round: R96, puzzle: Exclusion NG 1) | – | – | 17.9 nM | – | – | –
23 | UUGUUGUGUGUAGGAUAUGCAUAUUAUUAUUAUGCAGAAGGACAUGAGGAUCACCCAUGUGUAUUAUUAUUAUAUAUUAUAUAU [Title] (Eterna round: R96, puzzle: Exclusion NG 1) | – | – | 18.3 nM | – | – | –
24 | UUUAAAACAUAGGAUAUCGAAAUUAUCAUUUAACGAGAAGGAUGAACAUGAGGAUCACCCAUGUGGUAUCAUGG [Mat - Exclusion 6 - JL Mod - D17] (puzzle: Exclusion 6) | – | – | – | 184 nM | 202 nM | 123 nM
25 | UUUAAUUUUUUUUUUUUACAAGCUUUUUGCUCGUCUUAUACAUGAGGAUCACCCAUGUAAGUGGAGGGUAAAUUAUC [JMF 87] (puzzle: Sensor v3, turn-off variant 2) | – | – | – | 39.4 nM | 19.4 nM | 15.2 nM
26 | UUUAAUUUUUUUUUUUUACAAGCUUUUUGCUCGUCUUAUACAUGAGGAUCACCCAUGUAGAUGGGAAGUAAAUUAUC [JMF 53] (puzzle: Sensor v3, turn-off variant 2) | – | – | – | 200 nM | 24.7 nM | 24.5 nM
27 | UUUAAUUUUUUUUUUUUACAAGCUUUUUGCUCGUCUUAUACAUGAGGAUCACCCAUGUAGGUGAGGGAUAAAUUAUC [JMF 43] (puzzle: Sensor v3, turn-off variant 2) | – | – | – | 150 nM | 29.1 nM | 27.3 nM
28 | UUUAAUUUUUUUUUUUUACAAGCUUUUUGCUCGUCUUAUACAUGAGGAUCACCCAUGUAGGUGGAGGAUAAAUUAUC [JMF 36] (puzzle: Sensor v3, turn-off variant 2) | – | – | – | 56.1 nM | 23.5 nM | 25.5 nM
29 | UUUAAUUUUUUUUUUUUACAAGCUUUUUGCUCGUCUUAUACAUGAGGAUCACCCAUGUAGGUGGAGGGUAAAUUAUC [JMF 90] (puzzle: Sensor v3, turn-off variant 2) | – | – | – | 44.1 nM | 15.6 nM | 13.1 nM
30 | UUUAAUUUUUUUUUUUUACAAGCUUUUUGCUCGUCUUAUACAUGAGGAUCACCCAUGUGAAUGGGAGAUAAAUUAUC [JMF 18] (puzzle: Sensor v3, turn-off variant 2) | – | – | – | 508 nM | 356 nM | 456 nM
